# Measurements taken from paper PMC10253835, “Plakophilin-3 Binds the Membrane and Filamentous Actin without Bundling F-Actin” (International Journal of Molecular Sciences, 2023).
# Target: the molecule itself
# Assay: SEC; purified plakophilin-3 on Superdex S-200 10/300; methods give 20 mM Tris pH 7.5, 150 mM NaCl, 1 mM dithiothreitol; dimer and monomer peaks pooled and reloaded; more dimer at higher concentration and lower reducing conditions, mainly monomer with dithiothreitol or TCEP
protein,measurement,value
"plakophilin-3 (residues 305-797) (domain or fragment, human, UniProt Q9Y446 305-797, looked up, pET28 construct with eight histidines followed by an HRV-3C site at the amino terminus; no cleavage step is described; The protein is found as monomer and as homodimer; also called armadillo repeat motif domain of plakophilin-3; Pkp3; source: E. coli BL21(DE3) Rosetta2, purified (Ni-nitriloacetic acid column, Superdex S-200 size exclusion)) SHRTLQRLSSGFDDIDLPSAVKYLMASDPNLQVLGAAYIQHKCYSDAAAKKQARSLQAVPRLVKLFNHANQEVQRHATGAMRNLIYDNADNKLALVEENGIFELLRTLREQDDELRKNVTGILWNLSSSDHLKDRLARDTLEQLTDLVLSPLSGAGGPPLIQQNASEAEIFYNATGFLRNLSSASQATRQKMRECHGLVDALVTSINHALDAGKCEDKSVENAVCVLRNLSYRLYDEMPPSALQRLEGRGRRDLAGAPPGEVVGCFTPQSRRLRELPLAADALTFAEVSKDPKGLEWLWSPQIVGLYNRLLQRCELNRHTTEAAAGALQNITAGDRRWAGVLSRLALEQERILNPLLDRVRTADHHQLRSLTGLIRNLSRNARNKDEMSTKVVSHLIEKLPGSVGEKSPPAEVLVNIIAVLNNLVVASPIAARDLLYFDGLRKLIFIKKKRDSPDSEKSSRAASSLLANLWQYNKLHRDFRAKGYRKEDFLGP",stoichiometry N,2
